Laboratory results as given in publication doi:10.1101/2022.07.28.501822.

Target: integrin beta1 (SinoBiological 10587-H08H1) (UniProt P05556 21-728)
Assay: fluorescence polarization

Sequence of integrin beta1 (SinoBiological 10587-H08H1) (P05556 21-728): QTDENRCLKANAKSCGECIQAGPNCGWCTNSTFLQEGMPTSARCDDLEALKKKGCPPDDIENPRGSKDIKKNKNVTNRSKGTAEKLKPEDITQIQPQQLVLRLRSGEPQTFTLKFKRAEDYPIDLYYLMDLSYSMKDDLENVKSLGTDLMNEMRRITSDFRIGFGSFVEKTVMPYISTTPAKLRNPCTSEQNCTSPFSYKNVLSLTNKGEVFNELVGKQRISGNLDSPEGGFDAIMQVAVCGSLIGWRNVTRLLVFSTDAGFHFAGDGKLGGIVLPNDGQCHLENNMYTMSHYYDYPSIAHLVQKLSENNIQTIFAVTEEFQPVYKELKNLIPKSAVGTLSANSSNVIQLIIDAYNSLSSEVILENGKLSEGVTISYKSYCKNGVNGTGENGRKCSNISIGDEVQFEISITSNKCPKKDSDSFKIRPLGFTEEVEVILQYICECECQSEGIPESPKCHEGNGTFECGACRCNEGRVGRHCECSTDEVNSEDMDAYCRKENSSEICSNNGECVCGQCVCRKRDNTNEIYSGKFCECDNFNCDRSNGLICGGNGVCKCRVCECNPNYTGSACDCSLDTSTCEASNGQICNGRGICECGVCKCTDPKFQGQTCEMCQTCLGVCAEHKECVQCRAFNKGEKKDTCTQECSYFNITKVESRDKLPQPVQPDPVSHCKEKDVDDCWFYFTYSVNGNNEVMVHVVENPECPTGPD

B1: FAM-GreenB1 (ssDNA)
DNA: ATCCAGAGTGACGCAGCATGGGGGTAGTGGTGGTTAGGAGTGGAGGCGAGGAGAGCGGTGGACACGGTGGCTTAGT
  Kd: 7 nM
